Tests used:
Experiment in all cases: holdup assay
Set-up in all cases: key: below the threshold = too weak to quantify, mostly under pKd 3.1 to 4
[1] = target: Inadl_10, Q8NI35
[2] = target: T1, GRIP1_5, Q9Y3R0
T1 sequence (Q9Y3R0 568-668, limits assumed, looked up): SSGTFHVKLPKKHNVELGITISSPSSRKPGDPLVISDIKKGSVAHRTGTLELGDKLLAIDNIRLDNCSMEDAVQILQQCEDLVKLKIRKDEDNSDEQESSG

[3] = target: T2, NHERF3_3, Q5T2W1
T2 sequence (Q5T2W1 238-333, limits assumed, looked up): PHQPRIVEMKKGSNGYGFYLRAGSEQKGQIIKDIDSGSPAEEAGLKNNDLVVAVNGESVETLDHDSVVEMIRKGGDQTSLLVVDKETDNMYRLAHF

[4] = target: LNX1_2, Q8TBB1
Chain of LNX1_2, Q8TBB1 (Q8TBB1 371-470): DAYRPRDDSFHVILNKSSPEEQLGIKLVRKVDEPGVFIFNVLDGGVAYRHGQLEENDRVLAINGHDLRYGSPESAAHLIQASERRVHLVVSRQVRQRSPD

[5] = target: T3, MPP6, Q9NZW5
T3 sequence (Q9NZW5 125-219, limits assumed, looked up): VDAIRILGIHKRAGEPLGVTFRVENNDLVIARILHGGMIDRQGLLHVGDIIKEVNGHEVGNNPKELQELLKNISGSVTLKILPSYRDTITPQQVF

[6] = target: LDB3, O75112
Chain of LDB3, O75112 (O75112 1-94): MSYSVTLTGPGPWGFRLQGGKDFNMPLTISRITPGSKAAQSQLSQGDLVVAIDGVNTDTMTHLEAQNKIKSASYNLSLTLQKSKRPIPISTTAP

[7] = target: T4, HTRA4, P83105
T4 sequence (P83105 378-476, limits assumed, looked up): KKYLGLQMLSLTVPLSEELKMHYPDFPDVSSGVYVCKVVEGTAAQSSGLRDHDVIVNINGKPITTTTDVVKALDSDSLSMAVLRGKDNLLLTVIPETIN

[8] = target: GRID2IP_1, A4D2P6
Chain of GRID2IP_1, A4D2P6 (A4D2P6 1-87): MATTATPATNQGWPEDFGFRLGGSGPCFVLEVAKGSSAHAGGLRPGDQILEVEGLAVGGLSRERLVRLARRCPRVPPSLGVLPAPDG

[9] = target: T5, APBA1_1, Q02410
T5 sequence (Q02410 651-752, limits assumed, looked up): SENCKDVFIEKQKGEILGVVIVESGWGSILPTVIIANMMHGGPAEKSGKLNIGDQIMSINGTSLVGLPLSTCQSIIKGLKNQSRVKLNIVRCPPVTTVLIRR

[10] = target: DLG4_3, P78352
Chain of DLG4_3, P78352 (P78352 306-403): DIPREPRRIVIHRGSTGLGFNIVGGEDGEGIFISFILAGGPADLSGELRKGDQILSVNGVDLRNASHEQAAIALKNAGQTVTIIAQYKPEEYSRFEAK

[11] = target: AHNAK1, Q09666
Chain of AHNAK1, Q09666 (Q09666 4-100): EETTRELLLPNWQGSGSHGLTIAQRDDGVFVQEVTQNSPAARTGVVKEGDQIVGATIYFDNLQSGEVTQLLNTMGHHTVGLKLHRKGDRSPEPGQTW

[12] = target: GRIP2_5, Q9C0E4
Chain of GRIP2_5, Q9C0E4 (Q9C0E4 544-642): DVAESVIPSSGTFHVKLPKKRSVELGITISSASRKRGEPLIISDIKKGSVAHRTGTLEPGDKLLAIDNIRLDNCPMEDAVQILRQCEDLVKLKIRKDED

[13] = target: T6, NHERF3_4, Q5T2W1
T6 sequence (Q5T2W1 373-468, limits assumed, looked up): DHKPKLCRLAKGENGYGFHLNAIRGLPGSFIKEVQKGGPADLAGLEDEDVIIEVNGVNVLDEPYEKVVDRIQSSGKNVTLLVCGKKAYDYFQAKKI

[14] = target: LNX1_1, Q8TBB1
Chain of LNX1_1, Q8TBB1 (Q8TBB1 261-371): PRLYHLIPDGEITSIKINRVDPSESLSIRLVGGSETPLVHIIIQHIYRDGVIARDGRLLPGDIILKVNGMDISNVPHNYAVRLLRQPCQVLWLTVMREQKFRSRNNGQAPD

[15] = target: NHERF4_4, Q86UT5
Chain of NHERF4_4, Q86UT5 (Q86UT5 464-550): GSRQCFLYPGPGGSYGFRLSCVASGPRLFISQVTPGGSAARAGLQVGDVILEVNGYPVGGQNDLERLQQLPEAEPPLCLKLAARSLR

[16] = target: T7, HTRA3, P83110
T7 sequence (P83110 354-453, limits assumed, looked up): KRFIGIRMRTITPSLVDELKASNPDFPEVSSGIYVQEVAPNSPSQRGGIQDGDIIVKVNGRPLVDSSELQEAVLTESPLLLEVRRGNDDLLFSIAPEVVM

[17] = target: MAST2, Q6P0Q8
Chain of MAST2, Q6P0Q8 (Q6P0Q8 1099-1202): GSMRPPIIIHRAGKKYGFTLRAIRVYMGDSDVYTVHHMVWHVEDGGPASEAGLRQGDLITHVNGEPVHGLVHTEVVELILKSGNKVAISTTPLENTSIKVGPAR

[18] = target: T8, NHERF3_1, Q5T2W1
T8 sequence (Q5T2W1 4-100, limits assumed, looked up): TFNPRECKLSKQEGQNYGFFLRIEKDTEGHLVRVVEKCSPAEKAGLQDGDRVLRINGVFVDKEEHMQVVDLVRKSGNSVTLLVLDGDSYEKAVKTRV

[19] = target: SNX27, Q96L92
[20] = target: T9, RHPN1, Q8TCX5
T9 sequence (Q8TCX5 508-602, limits assumed, looked up): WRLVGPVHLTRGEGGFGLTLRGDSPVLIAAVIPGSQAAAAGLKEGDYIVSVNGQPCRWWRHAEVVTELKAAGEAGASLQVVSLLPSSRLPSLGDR

[21] = target: T10, SNTG1, Q9NSN8
T10 sequence (Q9NSN8 52-150, limits assumed, looked up): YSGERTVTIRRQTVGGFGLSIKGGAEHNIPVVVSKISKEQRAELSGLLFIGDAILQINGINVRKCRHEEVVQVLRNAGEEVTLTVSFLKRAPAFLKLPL

[22] = target: IL16_4, Q14005
Chain of IL16_4, Q14005 (Q14005 1229-1329): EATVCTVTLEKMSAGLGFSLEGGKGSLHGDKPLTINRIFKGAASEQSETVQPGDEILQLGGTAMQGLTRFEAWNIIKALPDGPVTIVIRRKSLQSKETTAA

[23] = target: MAGI3_2, Q5TCQ9
Chain of MAGI3_2, Q5TCQ9 (Q5TCQ9 398-503): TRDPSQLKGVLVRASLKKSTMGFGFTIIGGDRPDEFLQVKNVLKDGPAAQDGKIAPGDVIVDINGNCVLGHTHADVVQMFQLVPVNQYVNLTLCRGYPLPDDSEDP

[24] = target: T11, SHANK1, Q9Y566
T11 sequence (Q9Y566 658-767, limits assumed, looked up): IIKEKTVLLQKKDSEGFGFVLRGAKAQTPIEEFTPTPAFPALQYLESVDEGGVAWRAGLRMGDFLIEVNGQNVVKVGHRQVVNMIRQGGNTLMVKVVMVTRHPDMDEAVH

[25] = target: GRID2IP_2, A4D2P6
Chain of GRID2IP_2, A4D2P6 (A4D2P6 272-370): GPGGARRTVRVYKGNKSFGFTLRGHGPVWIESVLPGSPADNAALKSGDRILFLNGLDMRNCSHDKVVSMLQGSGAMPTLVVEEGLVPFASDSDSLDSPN

[26] = target: LNX1_3, Q8TBB1
Chain of LNX1_3, Q8TBB1 (Q8TBB1 500-596): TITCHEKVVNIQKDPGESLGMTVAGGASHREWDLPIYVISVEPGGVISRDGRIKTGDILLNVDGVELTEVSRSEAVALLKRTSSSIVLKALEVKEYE

[27] = target: MAGI2_3, Q86UL8
Chain of MAGI2_3, Q86UL8 (Q86UL8 600-682): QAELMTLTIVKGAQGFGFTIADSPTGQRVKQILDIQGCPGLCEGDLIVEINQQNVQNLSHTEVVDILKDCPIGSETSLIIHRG

[28] = plain residues with an end cap or a label only (N-terminal biotin on a linker: ttds)
[29] = plain residues with an end cap or a label only (N-terminal biotin on a linker: ahx)

Measured: pKd

Chain of Inadl_10, Q8NI35 (Q8NI35 1673-1763): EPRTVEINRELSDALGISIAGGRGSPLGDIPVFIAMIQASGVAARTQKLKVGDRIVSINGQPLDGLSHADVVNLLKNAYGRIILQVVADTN

B1: RASSF6, Q6ZTQ3 (peptide)
chain: KLVIKTETTV
3.73: [27]; [28]
below the threshold: [1]; [28] | [2]; [28] | [3]; [28] | [5]; [28] | [6]; [28] | [8]; [28] | [9]; [28] | [11]; [28] | [12]; [28] | [13]; [28] | [14]; [28] | [15]; [28] | [16]; [28] | [18]; [28] | [24]; [28] | [25]; [28] | [26]; [28]
5.22: [23]; [28]
3.93: [20]; [28]
4.16: [21]; [28]
3.49: [22]; [28]
3.66: [4]; [28]
5.03: [19]; [28]
4.39: [10]; [28]
5.13: [17]; [28]
3.46: [7]; [28]

B2: USH1C, Q9Y6N9 (peptide)
chain: KEYDDELTFF
4.51: [19]; [29]
below the threshold: [1]; [29] | [2]; [29] | [3]; [29] | [4]; [29] | [5]; [29] | [6]; [29] | [7]; [29] | [8]; [29] | [9]; [29] | [10]; [29] | [11]; [29] | [12]; [29] | [14]; [29] | [15]; [29] | [16]; [29] | [21]; [29] | [22]; [29] | [23]; [29] | [25]; [29] | [26]; [29] | [27]; [29]
5.3: [17]; [29]
3.8: [13]; [29]
5.25: [24]; [29]
4.27: [18]; [29]
4.11: [20]; [29]

B3: GPR6, P46095 (peptide)
chain: PFRSRSPSEV
4.16: [23]; [28]
below the threshold: [1]; [28] | [2]; [28] | [3]; [28] | [4]; [28] | [5]; [28] | [6]; [28] | [7]; [28] | [8]; [28] | [9]; [28] | [10]; [28] | [11]; [28] | [12]; [28] | [13]; [28] | [14]; [28] | [15]; [28] | [16]; [28] | [17]; [28] | [18]; [28] | [19]; [28] | [20]; [28] | [21]; [28] | [22]; [28] | [24]; [28] | [25]; [28] | [26]; [28] | [27]; [28]

B4: FZD7, O75084 (peptide)
chain: SHSSKGETAV
4.02: [10]; [28]
3.49: [27]; [28]
below the threshold: [1]; [28] | [2]; [28] | [3]; [28] | [4]; [28] | [5]; [28] | [6]; [28] | [7]; [28] | [8]; [28] | [9]; [28] | [11]; [28] | [12]; [28] | [13]; [28] | [14]; [28] | [15]; [28] | [20]; [28] | [22]; [28] | [24]; [28] | [25]; [28] | [26]; [28]
4.32: [21]; [28]
4.93: [23]; [28]
4.22: [18]; [28]
4.8: [19]; [28]
3.96: [16]; [28]
5.09: [17]; [28]
